The assay has as its target GST-Tip60 (UniProt Q92993 1-513). The experiment in a line: pull-down.

This is an account of results in publication PMC4407828 (Nature communications, 2015).

Chain of GST-Tip60 (Q92993 whole entry): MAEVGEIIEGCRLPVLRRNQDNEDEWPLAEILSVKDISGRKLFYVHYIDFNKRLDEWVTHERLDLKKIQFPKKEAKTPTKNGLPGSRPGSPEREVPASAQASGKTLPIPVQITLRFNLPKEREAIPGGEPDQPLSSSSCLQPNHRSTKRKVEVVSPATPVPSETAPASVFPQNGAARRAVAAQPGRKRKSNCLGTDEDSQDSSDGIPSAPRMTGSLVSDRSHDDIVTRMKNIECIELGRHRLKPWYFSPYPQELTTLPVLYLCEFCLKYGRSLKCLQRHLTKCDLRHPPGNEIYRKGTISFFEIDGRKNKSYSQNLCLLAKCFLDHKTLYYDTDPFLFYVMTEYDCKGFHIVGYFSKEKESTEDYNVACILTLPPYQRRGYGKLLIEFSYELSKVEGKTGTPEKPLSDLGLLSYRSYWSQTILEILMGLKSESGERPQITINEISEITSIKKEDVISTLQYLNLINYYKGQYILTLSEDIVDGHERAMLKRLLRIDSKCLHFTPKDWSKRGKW

B1: His-ATF3 (natural protein, UniProt P18847 1-181, looked up)
chain: MMLQHPGQVSASEVSASAIVPCLSPPGSLVFEDFANLTPFVKEELRFAIQNKHLCHRMSSALESVTVSDRPLGVSITKAEVAPEEDERKKRRRERNKIAAAKCRNKKKEKTECLQKESEKLESVNAELKAQIEELKNEKQHLIYMLNLHRPTCIVRAQNGRTPEDERNLFIQQIKEGTLQS
B1: the binding result was “binds”.
